The results in this text go back to article PMC7810697, “Sarcolipin alters SERCA1a interdomain communication by impairing binding of both calcium and ATP” (Scientific Reports, 2021).

Assay [1] concerns the target T1, recombinant SERCA1a (recS1a) (Oryctolagus cuniculus, UniProt P04191).
T1 construct: BAD (biotin acceptor domain) (C, cleaved yes); made in house; host or cells: Saccharomyces cerevisiae
Nature of the assay: Turnover-dependent dephosphorylation kinetics. In kind it is biochemical, rabbit (expressed in S. cerevisiae). To be noted: for effect on rate of dephosphorylation: after addition of non-radioactive ATP. On the procedure:
(§1) Transient formation of the phosphoenzyme intermediate was measured after incubation with [γ^32P]ATP followed by acid quenching, and filtration. For most experiments, 50 µL of enzyme at 10 µg/mL in a buffer containing 50 mM Tes-Tris pH7.5, 1 mM KCl, 5 mM MgCl2, 20% glycerol (w/w) and 0.5 mg/mL DDM, supplemented or not with SLN, was stored on ice. Concentrations of EGTA and calcium are specified in figure legends in order to reach the appropriate [Ca^2+]free and therefore the desired starting state for the ATPase. For kinetics of phosphorylation, we initiate reaction by addition of 2 µM [γ^32P]ATP (5 mCi/µmole), and calcium at 100 µM when specified. Reaction was quenched by addition of 2 mL of cold quenching medium (500 mM TCA + 30 mM H3P0_4) under vigorous mixing, and immediately stored on ice for 20–30 min to improve precipitation, a period of time critical for retention of the precipitate on the filter in presence of detergent. This was followed by filtration on GS filters (Millipore, Saint Quentin-Fallavier, France) and careful rinsing of the filters with diluted quenching medium (50 mM TCA + 3 mM H3P0_4). The amount of radioactivity bound to the filter was estimated by liquid scintillation counting (Perkin Elmer TriCarb Counter). When starting from a calcium-deprived state (Fig. 4C,D), EGTA was added only one minute before starting phosphorylation to limit irreversible inactivation of the solubilized ATPase, although the presence of glycerol helps in protecting the enzyme from irreversible inactivation. For dephosphorylation kinetics, 1 mM “cold” Mg.ATP was added after a 30 s period of phosphorylation. For Ca^2+-dependency, we adjust the concentration of free calcium according to the Ca.EGTA constant as mentioned above, before triggering phosphorylation. […] Phosphorylations were done at 0 °C especially for inhibition by vanadate to prevent dissociation of vanadate and limit irreversible inactivation in absence of calcium.

Assay [2] has as its target T1, recombinant SERCA1a (recS1a). Nature of the assay: Kinetics of phosphorylation from [γ32P]ATP, recS1a. To be noted: for EPmax, from calcium deprived state: Fig. 4C, mean of six (pSLN), four (SLN) replicates, recS1a alone 3.09 ± 0.10; for t1/2 of phosphorylation, from calcium deprived state: EGTA 1 min then 2 µM [γ32P]ATP and calcium, six (pSLN) or four (SLN) replicates from two independent experiments, recS1a alone 6.8, p < 0.0001; for rate of phosphorylation, from calcium deprived state: recS1a, starting from calcium-deprived state, Fig. 4C,D. Type of assay: biochemical, rabbit (expressed in S. cerevisiae). Here is the method: as §1

Assay [3] addresses T2, DDM-solubilized SR (native SERCA1a) (Oryctolagus cuniculus, UniProt P04191).
T2 construct: DDM-solubilized native SERCA1a purification; from tissue; host or cells: rabbit skeletal muscle sarcoplasmic reticulum
As to the kind of experiment: Effect of SLN:SERCA1a stoichiometry on phosphorylated intermediate, DDM-solubilized SR. In kind it is biochemical, rabbit. To be noted: for EPmax (stoichiometry series), DDM-solubilized SR / decrease of the EP level, DDM-solubilized native SERCA1a (discussion): Fig. 4G; for amplitude of the inhibition of phosphoenzyme level, DDM-solubilized SR: SR without added SLN = 100%; for amplitude of the inhibition of phosphoenzyme level, DDM-solubilized SR / SLN:SERCA1a ratio for half-inhibition, DDM-solubilized SR (Fig. 4H): mean of three independent experiments; for SLN:SERCA1a ratio for half-inhibition, DDM-solubilized SR (Fig. 4H): phosphoenzyme after 20 s, p = 0.047 pSLN vs SLN. On the procedure: Transient formation of the phosphoenzyme intermediate was measured after incubation with [γ^32P]ATP followed by acid quenching, and filtration. For most experiments, 50 µL of enzyme at 10 µg/mL in a buffer containing 50 mM Tes-Tris pH7.5, 1 mM KCl, 5 mM MgCl2, 20% glycerol (w/w) and 0.5 mg/mL DDM, supplemented or not with SLN, was stored on ice. Concentrations of EGTA and calcium are specified in figure legends in order to reach the appropriate [Ca^2+]free and therefore the desired starting state for the ATPase. For kinetics of phosphorylation, we initiate reaction by addition of 2 µM [γ^32P]ATP (5 mCi/µmole), and calcium at 100 µM when specified. Reaction was quenched by addition of 2 mL of cold quenching medium (500 mM TCA + 30 mM H3P0_4) under vigorous mixing, and immediately stored on ice for 20–30 min to improve precipitation, a period of time critical for retention of the precipitate on the filter in presence of detergent. This was followed by filtration on GS filters (Millipore, Saint Quentin-Fallavier, France) and careful rinsing of the filters with diluted quenching medium (50 mM TCA + 3 mM H3P0_4). The amount of radioactivity bound to the filter was estimated by liquid scintillation counting (Perkin Elmer TriCarb Counter). When starting from a calcium-deprived state (Fig. 4C,D), EGTA was added only one minute before starting phosphorylation to limit irreversible inactivation of the solubilized ATPase, although the presence of glycerol helps in protecting the enzyme from irreversible inactivation. For dephosphorylation kinetics, 1 mM “cold” Mg.ATP was added after a 30 s period of phosphorylation. For Ca^2+-dependency, we adjust the concentration of free calcium according to the Ca.EGTA constant as mentioned above, before triggering phosphorylation. […] Phosphorylations were done at 0 °C especially for inhibition by vanadate to prevent dissociation of vanadate and limit irreversible inactivation in absence of calcium. […]
resuspended in a large volume of pure water and lyophilized to evaporate most of the TFA. The rinsed powder was then suspended in presence of 10 mM HCl to exchange the anionic residual TFA that may interact with the positive charges of the peptide for chloride. This suspension was lyophilized again.
Three additional cycles of – dissolving in pure water / lyophilisation – will allow to eliminate traces of TFA and to get back to a pH compatible with functional tests. For final solubilisation of SLN in detergent, powder was then dissolved in 50% TFE and an amount of detergent to reach a 100:1 mole:mole detergent:SLN ratio. Here, we used C12E8 as it is fully compatible with functional characterization of SERCA1a 23. This suspension was then lyophilized again to evaporate TFE.
Sarcolipins (Palm-SLN or SLN) were finally resuspended at 0.8 mg/mL (about 200 µM) in a 10 mM potassium phosphate buffer pH 7.4, in the presence of 2.5 mg/mL C12E8. […]
DDM-solubilized native SERCA1a purification
SR vesicles were suspended at a concentration of 1 mg/mL in a buffer containing 50 mM MOPS-Tris pH7, 100 mM KCl, 5 mM MgCl2, 0.1 mM CaCl2, 20 % glycerol (v/v) and 10 mg/mL DDM (detergent:protein ratio 10:1 w/w), and incubated for 10 minutes at 20°C. Solubilized material was recovered after centrifugation for 10 minutes at 120,000 x g on a TLA100.3 rotor (Beckman Coulter TL100 ultracentrifuge). Supernatant was injected on a size exclusion chromatography column (Superdex 200 10/300 GL on an Akta Purifier FPLC system, GE Healthcare) equilibrated with the same buffer but now containing only 0.5 mg/mL DDM. Chromatography was performed at 4°C and at a flow rate of 0.5 mL/min. Fractions corresponding to the main peak were collected, pooled and stored at - 80°C. For further details, see 32.
Steady-state ATPase activity measurements
Measurements were performed using classical enzyme coupled assay. We measured the rate of NADH oxidation in the presence of 0.1 mg/mL lactate deshydrogenase, 0.05 mg/mL pyruvate kinase, 1 mM […]

Ends that are not written are not given here. * marks the point of attachment. Palmitoyl = CCCCCCCCCCCCCCCC(=O)*

T1 sequence (P04191 1-994 isoform P04191-2): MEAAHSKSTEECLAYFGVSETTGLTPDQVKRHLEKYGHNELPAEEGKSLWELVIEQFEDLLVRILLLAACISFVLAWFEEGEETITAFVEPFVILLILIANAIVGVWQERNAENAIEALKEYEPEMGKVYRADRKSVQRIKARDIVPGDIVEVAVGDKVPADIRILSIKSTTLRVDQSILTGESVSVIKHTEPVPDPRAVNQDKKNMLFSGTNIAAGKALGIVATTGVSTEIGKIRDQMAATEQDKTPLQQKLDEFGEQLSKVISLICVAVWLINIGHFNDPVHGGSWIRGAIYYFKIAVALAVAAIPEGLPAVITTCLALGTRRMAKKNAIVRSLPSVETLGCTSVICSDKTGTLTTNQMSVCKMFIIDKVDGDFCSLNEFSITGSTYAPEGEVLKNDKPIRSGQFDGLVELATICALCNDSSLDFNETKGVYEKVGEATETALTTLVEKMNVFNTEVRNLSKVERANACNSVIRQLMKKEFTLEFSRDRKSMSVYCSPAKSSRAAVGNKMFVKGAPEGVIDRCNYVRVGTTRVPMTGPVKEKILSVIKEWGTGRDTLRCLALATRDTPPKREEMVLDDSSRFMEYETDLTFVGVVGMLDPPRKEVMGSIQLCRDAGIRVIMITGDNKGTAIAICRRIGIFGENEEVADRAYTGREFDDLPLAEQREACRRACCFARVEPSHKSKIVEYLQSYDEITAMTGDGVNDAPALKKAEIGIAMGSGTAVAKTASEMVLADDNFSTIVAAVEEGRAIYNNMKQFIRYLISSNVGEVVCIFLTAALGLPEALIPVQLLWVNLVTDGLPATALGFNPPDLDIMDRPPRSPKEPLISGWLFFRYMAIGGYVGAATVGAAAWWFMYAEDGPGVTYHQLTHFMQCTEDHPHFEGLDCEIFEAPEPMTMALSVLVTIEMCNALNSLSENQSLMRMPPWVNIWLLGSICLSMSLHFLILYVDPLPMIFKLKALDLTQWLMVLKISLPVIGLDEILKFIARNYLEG
T2 sequence (P04191 1-994 isoform P04191-2): as above

Consider “SLN: chemically synthesized non-palmitoylated rabbit sarcolipin; in cited literature results sarcolipin in general (MERSTRELCLNFTVVLITVILIWLLVRSYQY; UniProt P42532 1-31, looked up)”, for which the “effect on rate of dephosphorylation” value in assay [1] was “No effect”. The “EPmax, from calcium deprived state” value in assay [2] (SLN:SERCA1a 10:1) was 3.15 ± 0.05 nmoles EP/mg ATPase. Moreover, the t1/2 of phosphorylation, from calcium deprived state in assay [2] (SLN:SERCA1a 10:1 mol:mol) came to 13.7 s. For the same substance, in assay [2], the “rate of phosphorylation, from calcium deprived state” value was “significantly lower”. Further, in assay [3], the “EPmax (stoichiometry series), DDM-solubilized SR” value is listed as 3.94 ± 0.12 nmoles EP/mg ATPase; the “decrease of the EP level, DDM-solubilized native SERCA1a (discussion)” value is given as “about 20%”; the “amplitude of the inhibition of phosphoenzyme level, DDM-solubilized SR” value is 19.0 ± 0.7%; the “SLN:SERCA1a ratio for half-inhibition, DDM-solubilized SR (Fig. 4H)” value was 3.1 ± 0.3 mol SLN added per mole of SERCA1a.
On to “pSLN: chemically synthesized S-palmitoylated rabbit sarcolipin, 31-residue single-spanning membrane peptide, palmitoylated on Cys9 (MERSTRELC(Palmitoyl)LNFTVVLITVILIWLLVRSYQY; UniProt P42532 1-31, looked up)”, for which the “effect on rate of dephosphorylation” value in assay [1] is given as “No effect”. In assay [1] (pSLN:SERCA1a 10:1 mol:mol, 1 mM cold Mg.ATP after 30 s phosphorylation, three replicates from two independent experiments, recS1a alone 2.4 +/- 0.4, p=0.064), the t1/2 of dephosphorylation worked out at 2.8 ± 0.6 s. For the same substance, the “EPmax, from calcium bound state” value in assay [2] (SLN:SERCA1a 10:1, Fig. 4A, average of four replicates from two independent experiments, recS1a alone 3.37 ± 0.35) is listed as 3.23 ± 0.37 nmoles EP/mg ATPase. Further, the “EPmax, from calcium deprived state” value in assay [2] (SLN:SERCA1a 10:1) is 3.10 ± 0.09 nmoles EP/mg ATPase. Moreover, in assay [2] (SLN:SERCA1a 10:1 mol:mol, 2 µM [γ32P]ATP, four replicates from two independent experiments, recS1a alone 5.7, p = 0.45), the t1/2 of phosphorylation, from calcium bound state (Ca2.E1) turned out to be 5.1 s. Moreover, the t1/2 of phosphorylation, from calcium deprived state in assay [2] (SLN:SERCA1a 10:1 mol:mol) is 13.5 s. Besides, in assay [2] (recS1a in absence or presence of pSLN, starting from Ca2.E1), the “rate of phosphorylation, from calcium bound state” value is reported as “the same”. Further, the “rate of phosphorylation, from calcium deprived state” value in assay [2] is “significantly lower”. Moreover, in assay [3], the “EPmax (stoichiometry series), DDM-solubilized SR” value was 4.00 ± 0.14 nmoles EP/mg ATPase; the “decrease of the EP level, DDM-solubilized native SERCA1a (discussion)” value is listed as “about 30%”; the “amplitude of the inhibition of phosphoenzyme level, DDM-solubilized SR” value was determined as 28.1 ± 1.2%; the “SLN:SERCA1a ratio for half-inhibition, DDM-solubilized SR (Fig. 4H)” value is listed as 5.9 ± 0.6 mol SLN added per mole of SERCA1a.
